Test results reported in patent US20140011734A1 (Sanofi, published 2014).
Starred links: 1 amine or outer side, 2 acyl side, 3 side chain; linkers in the order of their positions; H or OH if unused. Non-standard residues stand in square brackets, D forms with d. Amp = L-2-amino-3-methoxypropionic acid, COC[C@H](N[*:1])C(=O)[*:2]; Amb = L-2-amino-4-methoxybutyric acid, COCC[C@H](N[*:1])C(=O)[*:2]; NHCH2(1,3-C6H4)CH2CO = O=C(Cc1cccc(CN[*:1])c1)[*:2]; Nle = CCCC[C@H](N)C(=O)O; Abu = CC[C@H](N)C(=O)O; Aoc = NCCCCCCCC(=O)O; Ahp = NCCCCCCC(=O)O; βAla = NCCC(=O)O

Columns and labels:
[1] = target: T1, blood platelet receptor glycoprotein Ib-IX-V complex (GPIb) (human, UniProt P07359 17-652; P13224 26-206; P14770 17-177; P40197 17-560); assay: cell-based or functional assay
[2] = target: T1, blood platelet receptor glycoprotein …; assay: inhibition of static adhesion of human platelets to coated vWF-A1; grade C = IC50 lower than 1 µM
Procedure: (§1) Platelet rich plasma was carefully transferred again to fresh containers, PGE1 (0.5 μg/ml, Sigma) was added and the suspension was allowed to rest for 5 min. This was followed by another centrifugation step for 15 min at 360 g. The supernatant was discarded and the cell pellets were carefully resuspended in tyrode buffer (NaCl, 137 mM (Sigma S-3014); KCl, 2.7 mM (Sigma P-9541); NaHCO₃,12 mM (Riedel deHaen 31437); NaH₂PO₄×2H₂O, 0.36 mM (Merck 6345); MgCl₂×6 H₂O, 1 mM (Sigma M-2670); Hepes, 10 mM (Sigma H-1016); glucose, 5.6 mM (Merck 8342); BSA, 0.1% (Sigma A7906)), and PGE1 (0.25 μg/ml) was added. After 5 min of resting the suspension was spun down for 15 min at 300 g. The supernatant was discarded and the pellets were carefully resuspended in TBS buffer (Tris-HCl, 50 mM (Fluka 93371); NaCl, 120 mM (Sigma S-3014); KCl, 2.7 mM (Sigma P-9541); CaCl₂, 0.05 mM (Sigma C-3306); MgCl₂×6 H₂O, 2 mM (Sigma M-2670); BSA, 0.1% (Sigma A7906); pH 7.4). The platelet count was adjusted to 2×10⁵ cells/μl, and the suspensions from individual donors were pooled at this stage. The platelets were allowed to rest for 30 min at room temperature before calcein AM (2.5 μM per 2×10⁵ cells/pi (Molecular Probes C-3099)) was added. This was followed by 15 min incubation in the dark. Cells were diluted to 5×10⁴ cells/μl and ReoPro (3 μg/ml (Centocor B. V., Leiden, N L)) was added, followed by a 10 min incubation period in the dark before adding the platelets to the assay plates.
96 well plates (Greiner hb, black, clear bottom, F, 655097) were coated with human recombinant vWF-A1 domain (1.5 μg/well, AA 475-706, expressed in E. coli) in Tris buffer (pH 7.4; Tris-HCl, 25 mM; NaCl, 150 mM) and incubated for 1 h at room temperature. After washing the wells 3× with TBS, blocking buffer (TBS with 5% BSA) was added followed by an incubation for 1 h. The wells were washed again 3× with TBS before 200 μl TBS were added to each well, preventing them from drying out. TBS was flicked out and serial dilutions of the test compound were added. The washed and calcein AM labeled thrombocytes were added to the wells (2.5×10⁶ cells/well). Following an adhesion period of 1.5 h in the dark the wells were washed 3× with TBS. Measurement of fluorescence per well was performed in a SpectraMax M5 reader (Molecular Devices). From the raw data % inhibition and IC₅₀ values were calculated.

[3] = target: T1, blood platelet receptor glycoprotein …; assay: inhibition of static adhesion of human platelets to coated vWF-A1; grade A = showed activity at 10 µM
Procedure: as §1, with “The platelet count was adjusted to 2×10⁵ cells/μl, and the suspensions from individual donors were pooled at this stage. The platelets were allowed to rest for 30 min at room temperature before calcein AM (2.5 μM per 2×10⁵ cells/pi (Molecular Probes C-3099)) was added. This was followed by 15 min incubation in the dark. Cells were diluted to 5×10⁴ cells/μl and ReoPro (3 μg/ml (Centocor B. V., Leiden, N L)) was added, followed by a 10 min incubation period in the dark before adding the platelets to the assay plates.” left out
96 well plates (Greiner hb, black, clear bottom, F, 655097) were coated with human recombinant vWF-A1 domain (1.5 μg/well, AA 475-706, expressed in E. coli) in Tris buffer (pH 7.4; Tris-HCl, 25 mM; NaCl, 150 mM) and incubated for 1 h at room temperature. […] Measurement of fluorescence per well was performed in a SpectraMax M5 reader (Molecular Devices). From the raw data % inhibition and IC₅₀ values were calculated.

T1 sequence (P07359 17-652, chain 1 of 4): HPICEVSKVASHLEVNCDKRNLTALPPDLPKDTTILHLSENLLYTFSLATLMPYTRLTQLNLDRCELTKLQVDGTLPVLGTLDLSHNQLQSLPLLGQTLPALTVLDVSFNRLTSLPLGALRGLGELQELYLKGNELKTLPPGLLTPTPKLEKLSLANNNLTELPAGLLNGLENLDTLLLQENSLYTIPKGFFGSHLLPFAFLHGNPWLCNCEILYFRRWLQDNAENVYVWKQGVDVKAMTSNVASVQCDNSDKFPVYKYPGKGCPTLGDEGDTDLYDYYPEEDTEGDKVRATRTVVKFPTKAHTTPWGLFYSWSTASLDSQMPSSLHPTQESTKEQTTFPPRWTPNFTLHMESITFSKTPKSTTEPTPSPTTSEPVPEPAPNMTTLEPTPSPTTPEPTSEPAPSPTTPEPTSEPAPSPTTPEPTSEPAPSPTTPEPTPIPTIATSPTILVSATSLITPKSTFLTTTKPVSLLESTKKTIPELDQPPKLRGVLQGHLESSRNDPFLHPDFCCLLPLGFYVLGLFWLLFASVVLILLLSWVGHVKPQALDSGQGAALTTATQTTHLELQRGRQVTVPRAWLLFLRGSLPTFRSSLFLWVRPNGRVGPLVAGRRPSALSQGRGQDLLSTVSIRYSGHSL
T1 sequence (P13224 26-206, chain 2 of 4): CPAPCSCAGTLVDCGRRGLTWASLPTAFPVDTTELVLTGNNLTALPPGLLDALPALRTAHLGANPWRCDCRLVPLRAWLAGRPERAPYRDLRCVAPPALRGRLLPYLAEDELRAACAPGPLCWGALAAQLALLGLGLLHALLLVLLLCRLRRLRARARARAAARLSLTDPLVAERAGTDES
T1 sequence (P14770 17-177, chain 3 of 4): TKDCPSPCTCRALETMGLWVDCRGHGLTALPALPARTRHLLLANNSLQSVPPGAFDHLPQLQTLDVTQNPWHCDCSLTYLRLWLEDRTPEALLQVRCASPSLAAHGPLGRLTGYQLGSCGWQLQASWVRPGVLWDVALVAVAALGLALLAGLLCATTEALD
T1 sequence (P40197 17-560, chain 4 of 4): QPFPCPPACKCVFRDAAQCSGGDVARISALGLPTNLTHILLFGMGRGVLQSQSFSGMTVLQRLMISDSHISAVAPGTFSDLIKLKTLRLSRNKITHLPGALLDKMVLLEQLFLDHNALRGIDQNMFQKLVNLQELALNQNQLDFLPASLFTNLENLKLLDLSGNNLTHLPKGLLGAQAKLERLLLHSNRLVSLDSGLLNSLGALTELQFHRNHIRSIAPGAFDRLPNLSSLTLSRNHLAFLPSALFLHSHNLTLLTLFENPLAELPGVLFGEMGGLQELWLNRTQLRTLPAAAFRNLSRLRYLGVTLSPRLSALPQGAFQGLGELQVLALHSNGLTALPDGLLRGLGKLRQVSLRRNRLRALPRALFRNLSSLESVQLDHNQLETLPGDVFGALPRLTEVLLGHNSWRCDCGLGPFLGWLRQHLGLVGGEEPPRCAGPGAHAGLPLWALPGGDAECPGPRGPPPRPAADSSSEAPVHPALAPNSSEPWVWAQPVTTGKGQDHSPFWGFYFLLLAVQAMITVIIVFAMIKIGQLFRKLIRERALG

Row | Binder | IC50 (average value), ristocetin-induced agglutination of human whole blood, impedance aggregometry [1] [µM] | IC50 [2] [µM] | binding result [3]
1 | cyclo(LHNL[Ahp]TERMA) (also: made as TFA salt and as acetate salt, Made as trifluoroacetic acid salt and also as acetic acid salt) [Cyclo[Leu-His-Asn-Leu-NH-(CH2)6-CO-Thr-Glu-Arg-Met-Ala]] | < 1 | < 1 | 
2 | cyclo(LHNL[Ahp]VERMA) (SMILES CSCC[C@@H]1NC(=O)[C@H](CCCNC(=N)N)NC(=O)[C@H](CCC(=O)O)NC(=O)[C@H](C(C)C)NC(=O)CCCCCCNC(=O)[C@H](CC(C)C)NC(=O)[C@H](CC(N)=O)NC(=O)[C@H](Cc2c[nH]cn2)NC(=O)[C@H](CC(C)C)NC(=O)[C@H](C)NC1=O) [Cyclo[Leu-His-Asn-Leu-NH-(CH2)6-CO-Val-Glu-Arg-Met-Ala]] |  |  | binds
3 | cyclo(LHNL[NHCH2(1,3-C6H4)CH2CO]TERMA) (SMILES CSCC[C@@H]1NC(=O)[C@H](CCCNC(=N)N)NC(=O)[C@H](CCC(=O)O)NC(=O)[C@H]([C@@H](C)O)NC(=O)Cc2cccc(c2)CNC(=O)[C@H](CC(C)C)NC(=O)[C@H](CC(N)=O)NC(=O)[C@H](Cc2c[nH]cn2)NC(=O)[C@H](CC(C)C)NC(=O)[C@H](C)NC1=O) [Cyclo[Leu-His-Asn-Leu-NH-X4-X3-X2-X1-CO-Thr-Glu-Arg-Met-Ala] of example 2] | < 1 | < 1 | 
4 | cyclo(LHNL[βAla]GTERMA) (SMILES CSCC[C@@H]1NC(=O)[C@H](CCCNC(=N)N)NC(=O)[C@H](CCC(=O)O)NC(=O)[C@H]([C@@H](C)O)NC(=O)CNC(=O)CCNC(=O)[C@H](CC(C)C)NC(=O)[C@H](CC(N)=O)NC(=O)[C@H](Cc2c[nH]cn2)NC(=O)[C@H](CC(C)C)NC(=O)[C@H](C)NC1=O) [Cyclo[Leu-His-Asn-Leu-NH-(CH2)2-CO-Gly-Thr-Glu-Arg-Met-Ala]] |  |  | binds
5 | cyclo(LHNL[Ahp]TER[Abu]A) (SMILES CC[C@@H]1NC(=O)[C@H](CCCNC(=N)N)NC(=O)[C@H](CCC(=O)O)NC(=O)[C@H]([C@@H](C)O)NC(=O)CCCCCCNC(=O)[C@H](CC(C)C)NC(=O)[C@H](CC(N)=O)NC(=O)[C@H](Cc2c[nH]cn2)NC(=O)[C@H](CC(C)C)NC(=O)[C@H](C)NC1=O) [Cyclo[Leu-His-Asn-Leu-NH-(CH2)6-CO-Thr-Glu-Arg-Abu-Ala]] |  | < 1 | 
6 | cyclo(LHNL[Ahp]TER[Nle]A) (SMILES CCCC[C@@H]1NC(=O)[C@H](CCCNC(=N)N)NC(=O)[C@H](CCC(=O)O)NC(=O)[C@H]([C@@H](C)O)NC(=O)CCCCCCNC(=O)[C@H](CC(C)C)NC(=O)[C@H](CC(N)=O)NC(=O)[C@H](Cc2c[nH]cn2)NC(=O)[C@H](CC(C)C)NC(=O)[C@H](C)NC1=O) [Cyclo[Leu-His-Asn-Leu-NH-(CH2)6-CO-Thr-Glu-Arg-Nle-Ala]] |  | < 1 | 
7 | cyclo(LHNL[Ahp]TER[Amb]A) (SMILES COCC[C@@H]1NC(=O)[C@H](CCCNC(=N)N)NC(=O)[C@H](CCC(=O)O)NC(=O)[C@H]([C@@H](C)O)NC(=O)CCCCCCNC(=O)[C@H](CC(C)C)NC(=O)[C@H](CC(N)=O)NC(=O)[C@H](Cc2c[nH]cn2)NC(=O)[C@H](CC(C)C)NC(=O)[C@H](C)NC1=O) [Cyclo[Leu-His-Asn-Leu-NH-(CH2)6-CO-Thr-Glu-Arg-Amb-Ala]] |  | < 1 | 
8 | cyclo(LHNL[Ahp]TER[Amp]A) (SMILES COC[C@@H]1NC(=O)[C@H](CCCNC(=N)N)NC(=O)[C@H](CCC(=O)O)NC(=O)[C@H]([C@@H](C)O)NC(=O)CCCCCCNC(=O)[C@H](CC(C)C)NC(=O)[C@H](CC(N)=O)NC(=O)[C@H](Cc2c[nH]cn2)NC(=O)[C@H](CC(C)C)NC(=O)[C@H](C)NC1=O) [Cyclo[Leu-His-Asn-Leu-NH-(CH2)6-CO-Thr-Glu-Arg-Amp-Ala]] |  | < 1 | 
9 | cyclo(LHNL[Aoc]TERMA) (SMILES CSCC[C@@H]1NC(=O)[C@H](CCCNC(=N)N)NC(=O)[C@H](CCC(=O)O)NC(=O)[C@H]([C@@H](C)O)NC(=O)CCCCCCCNC(=O)[C@H](CC(C)C)NC(=O)[C@H](CC(N)=O)NC(=O)[C@H](Cc2c[nH]cn2)NC(=O)[C@H](CC(C)C)NC(=O)[C@H](C)NC1=O) [Cyclo[Leu-His-Asn-Leu-NH-(CH2)7-CO-Thr-Glu-Arg-Met-Ala]] |  | < 1 | 
